Measurements from patent publication US20220324964A1 (GENERAL HOSPITAL, published 2022).

T1: his-tagged recombinant TACI (UniProt O14836 1-165, limits assumed)
T1 construct: Analyte in the SPR assay; also called TNFRSF13B; not shown: his tag
T1 sequence (looked up): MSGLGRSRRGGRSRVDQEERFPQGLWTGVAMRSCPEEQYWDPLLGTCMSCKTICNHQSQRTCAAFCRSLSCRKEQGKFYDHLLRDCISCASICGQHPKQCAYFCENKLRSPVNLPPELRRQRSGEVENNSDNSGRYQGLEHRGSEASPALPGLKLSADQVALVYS

T2: soluble TACI protein, fluorescently labeled (UniProt O14836 1-165, limits assumed, fluorescent label (not specified))
T2 construct: Labeled soluble protein used to stain CAR T cells in flow cytometry; also called sTACI; fluorescent TACI
T2 sequence (looked up): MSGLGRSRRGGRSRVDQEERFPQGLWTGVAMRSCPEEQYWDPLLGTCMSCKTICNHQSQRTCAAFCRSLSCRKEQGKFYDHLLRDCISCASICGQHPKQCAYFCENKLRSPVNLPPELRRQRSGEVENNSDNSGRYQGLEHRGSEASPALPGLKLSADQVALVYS

T3: soluble BCMA, labeled (UniProt Q02223 1-54, fluorescent label (not specified))
T3 construct: Labeled soluble protein used to stain CAR T cells in flow cytometry; also called sBCMA; fluorescent BCMA
T3 sequence (looked up): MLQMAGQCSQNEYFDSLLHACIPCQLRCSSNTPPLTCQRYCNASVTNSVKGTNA


Assays:
[1] = target: T1, his-tagged recombinant TACI; experiment: SPR; antibody captured on anti-mouse IgG chip, his-tagged recombinant TACI as analyte
Procedure: The antibodies were analyzed by surface plasmon resonance according to the following procedure (FIG. 2). The binding of his-tagged recombinant TACI to anti-TACI antibody was captured to 120 RU (for TACI) on anti-mouse IgG.

[2] = target: T2, soluble TACI protein, fluorescently …; experiment: flow cytometry, fluorescent soluble TACI titrated 0.01 to 1000 nM on CAR T cells, MFI relative to untransduced cells (panel Amount of soluble TACI binding), N=3
Excerpt: (§1) The top two plots show binding of fluorescent BCMA and the bottom two plots show binding of fluorescent TACI to anti-TACI H-L CAR, anti-TACI L-H CAR, anti-BCMA, anti-TACI/anti-BCMA bispecific CAR, anti-BCMA/anti-TACI bispecific CAR, or untransduced T cells. The two left plots show the percentage of cells positive for BCMA or TACI. The two right plots show median fluorescence intensity for each cell population relative to untransduced cells.
(§2) To test the efficacy of bispecific CAR T cells to bind their respective antigens, T cells were either left untransduced, or transduced with anti-TACI H-L CAR, anti-TACI L-H CAR, anti-BCMA CAR, anti-TACI/anti-BCMA bispecific CAR, or anti-BCMA/anti-TACI bispecific CAR, and were tested for their binding of soluble antigens.

[3] = target: T2, soluble TACI protein, fluorescently …; experiment: flow cytometry, fluorescent soluble TACI titrated 0.01 to 1000 nM on CAR T cells, MFI relative to untransduced cells, N=3
Procedure: (§3) FIGS. 25A-25B show measurements of binding of soluble TACI protein to untransduced T cells, and to T cells expressing anti-TACI H-L, anti-TACI L-H, or anti-BCMA. Cells were incubated with fluorescent soluble TACI protein at various concentrations, after which fluorescence of the cells was measured using flow cytometry, represented as percentage of cells positive for TACI (FIG. 25A) or as median fluorescence intensity (MFI) relative to signal measured in untransduced cells (FIG. 25B).
(§4) To evaluate the expression, binding efficacy, and binding specificity of anti-TACI CARs, normal donor T cells were transduced with anti-TACI H-L, anti-TACI L-H, or anti-BCMA and transduction efficiency was evaluated by measuring the percentage of each T cell population positive for mCherry expression by flow cytometry. […] To compare binding efficiency and specificity of different CARs, T cells expressing each CAR construct were incubated with fluorescently-labeled soluble TACI and analyzed by flow cytometry.

[4] = target: T2, soluble TACI protein, fluorescently …; experiment: flow cytometry, fluorescent soluble TACI titrated 0.01 to 1000 nM on CAR T cells, percentage TACI+, N=3
Procedure: as §3, §4

[5] = target: T3, soluble BCMA, labeled; experiment: flow cytometry, labeled soluble BCMA (8 to 1000 ng) on CAR T cells, gated on live CAR T cells
Procedure: The anti-BCMA, anti-TACI (H/L), and anti-TACI (L/H) CAR T cells were evaluated for their capabilities to bind to soluble TACI (sTACI), soluble BCMA (sBCMA), and soluble APRIL (sAPRIL) was determined. T cells were washed 4 times in PBS 4% BSA, and incubated with labeled protein on ice at 4° C. for 40 min. After incubation, cells were washed twice with FACS buffer and flow cytometry was performed gating on live, CAR T cells to calculate protein binding. As evident in FIG. 12A, anti-TACI (L/H) CAR T cells have higher binding efficiency to soluble TACI than anti-TACI (H/L) CAR T cells.

[6] = target: T2, soluble TACI protein, fluorescently …; experiment: flow cytometry, fluorescent soluble TACI titrated 0.01 to 1000 nM on CAR T cells, percentage TACI+ (panel Soluble binding of TACI), N=3
Excerpt: as §1, §2

Kd [1]	koff [1]	kon [1]	EC50 (read off the curve) [2]	EC50 (read off the curve) [3]	EC50 (read off the curve) [4]	binding result [5]	EC50 (read off the curve) [6]	Binder
0.861 nM	0.00121 s⁻¹	1.41e+06 M⁻¹ s⁻¹						anti-TACI antibody (monoclonal antibody from hybridoma, Example 1) (antibody, V domains shown, also called anti-TACI mAb) VH: EVQLQQSGPELVKPGASVKISCKTSGYTFTESTIHWVKQSHGKSLEWIGGISPNNGGSPFNQKFKGKATLTVDKSSSTVYMELRSLSSEDSAVYYCAKWVRGAMDFWGQGTSVTVSS VL: not shown
			~8 nM	~8 nM	~2 nM	no binding (tested: 1000 ng)	~2 nM	Anti-TACI (H/L) CAR expressed on T cells (other, Chimeric antigen receptor: anti-TACI scFv VH-(G4S)4-VL, CD8 hinge/TM, 4-1BB, CD3zeta; The vector also expresses mCherry; also called Anti-TACI CAR (H-L)) EVQLQQSGPELVKPGASVKISCKTSGYTFTESTIHWVKQSHGKSLEWIGGISPNNGGSPFNQKFKGKATLTVDKSSSTVYMELRSLSSEDSAVYYCAKWVRGAMDFWGQGTSVTVSSGGGGSGGGGSGGGGSGGGGSDIVLTQSPASLAVSLGQRATISCRASESVDYYGMSLMNWFQQKPGQPPKLVIYAASNQGSGVPARFSGSGSGTDFRLNIHPLEEDDTGMYFCQQSKEAPPTFGGGTKLEIKTTTPAPRPPTPAPTIASQPLSLRPEACRPAAGGAVHTRGLDFACDIYIWAPLAGTCGVLLLSLVITLYCKRGRKKLLYIFKQPFMRPVQTTQEEDGCSCRFPEEEEGGCELRVKFSRSADAPAYQQGQNQLYNELNLGRREEYDVLDKRRGRDPEMGGKPRRKNPQEGLYNELQKDKMAEAYSEIGMKGERRRGKGHDGLYQGLSTATKDTYDALHMQALPPR
